Laboratory results published in patent publication US8367390B2, “Galactanase variants” (Novozymes A/S, priority 2002, dated 2013).

Legend:
Format in all cases: biochemical
[1] = HPAE-PAD check of transglycosylation products from ONPG; conditions: HIGAL 110 μg/ml; ONPG 5 mg/ml with and without Gal2 or Gal3 0.05 mg/ml; room temperature, pH 6.5
Procedure: Using HPAE-PAD chromatography (Dionex LC-500 System, PA-100 column, linear gradient of 0-0.6 M sodium acetate in 100 mM NaOH), the production of larger oligosaccharides from transglycosylation upon incubation of HIGAL (110 μg/ml) at room temperature (0.5 to 14 min followed by heat inactivation for 10 min at 95° C. resulting in A405: 0.15-0.67) in 50 mM sodium acetate, 1 mM CaCl2, 0.01% Triton X-100, pH 6.5 with ONPG (5 mg/ml) with and without Gal2 (0.05 mg/ml) or Gal3 (0.05 mg/ml) as acceptor was verified.

[2] = pH profile of galactanase activity on lupin AZCL-galactan; conditions: 15 min at 37° C., A590, unit assumed
Procedure: The pH profiles of the purified variants described above were established as follows: Galactanase activity at various pH was measured by mixing 500 μl 4 mg/ml lupin AZCL-galactan (Megazyme, Australia) in water with 500 μl buffer (50 mM sodium acetate, 50 mM potassium dihydrogenphosphate, 50 mM boric acid, 1 mM CaCl2, 0.01% Triton X-100 adjusted to pH 2.5, 3.5, 4.5, 5.5, 6.5, 7.5, 8.5 or 9.5 with HCl/NaOH) and 25 μl purified enzyme diluted to about 0.5-2 μg/ml in water. The mixture was incubated 15 min at 37° C., insoluble material was removed by centrifugation, and absorbance in the supernatant was measured at 590 nm.

[3] = Activity on lactose, products by HPAE-PAD; conditions: lactose 100 mg/ml, 50° C., pH 6.45
Procedure: HIGAL (60 micrograms/ml) and MTGAL (750 μg/ml) were incubated at 50° C. with lactose (Lac) (100 mg/ml) at pH 4.8 (25 mM sodium citrate), 6.45 (25 mM sodium acetate, 0.5 mM CaCl2, 0.005% Triton X-100) and 8.6 (50 mM Tris, 0.01% Brij 35). 20 microliters samples were withdrawn after 2, 23 and 120 hours, 980 water added and enzyme inactivated by heating to 95° C. for 10 min. After a further 20 time dilution with water, samples were analysed using HPAE-PAD (Dionex LC-500 system, PA-100 column, 0-3 min: 150 mM NaOH, 3-19 min: linear gradient 0-0.18 M sodium acetate in 150 mM NaOH). Response factors for the individual peaks were estimated from standards of Gal, Glu, Lac, Gal2, Gal3 and Gal4.
In Tables 12 and 13 weight fractions of the analysed products with MTGAL at pH […] and 6.45 are given. The figures indicate weight % of the products resulting from the incubation. The term DP3 indicates transglycosylation product consisting of three sugar units, and the term DP4+ transglycosylation products consisting of four or more sugar units. Unfortunately, the analysis method used was not able to separate Glu and Gal.

[4] = Activity on lactose, products by HPAE-PAD; conditions: lactose 100 mg/ml, 50° C.
[5] = pH 4.5, incubation time 2 hours
[6] = pH 4.5, incubation time 23 hours
[7] = pH 4.5, incubation time 120 hours
[8] = pH 6.45, incubation time 120 hours

B1: HIGAL: GH Family 53 galactanase from Humicola insolens, SEQ ID NO: 2 (wild type parent) (protein, listed as Humicola insolens)
chain: ALQYKGVDWSSVMVEERAGVRYKNVNGQEKPLEYILAENGVNMVRQRVWVNPWDGNYNLDYNIQLARRAKAAGLGLYINFHYSDTWADPAHQTTPAGWPSDINNLAWKLYNYTLDSMNRFADAGIQVDIVSIGNEITQGLLWPLGKTNNWYNIARLLHSAAWGVKDSRLNPKPKIMVHLDNGWNWDTQNWWYTNVLSQGPFEMSDFDMMGVSFYPFYSASATLDSLRRSLNNMVSRWGKEVAVVETNWPTSCPYPRYQFPADVRNVPFSAAGQTQYIQSVANVVSSVSKGVGLFYWEPAWIHNANLGSSCADNTMFTPSGQALSSLSVFHRI
modifications: mat_peptide (1)..()
Production of larger oligosaccharides from transglycosylation [1]: verified

B2: MTGAL: GH Family 53 galactanase from Myceliophthora thermophila, SEQ ID NO: 1 (wild type parent) (protein, listed as Myceliophthora thermophila)
chain: ALTYRGVDWSSVVVEERAGVSYKNTNGNAQPLENILAANGVNTVRQRVWVNPADGNYNLDYNIAIAKRAKAAGLGVYIDFHYSDTWADPAHQTMPAGWPSDIDNLSWKLYNYTLDAANKLQNAGIQPTIVSIGNEIRAGLLWPTGRTENWANIARLLHSAAWGIKDSSLSPKPKIMIHLDNGWDWGTQNWWYTNVLKQGTLELSDFDMMGVSFYPFYSSSATLSALKSSLDNMAKTWNKEIAVVETNWPISCPNPRYSFPSDVKNIPFSPEGQTTFITNVANIVSSVSRGVGLFYWEPAWIHNANLGSSCADNTMFSQSGQALSSLSVFQRI
modifications: mat_peptide (1)..()
Galactanase activity at pH 2.5 ([2]; pH 2.5): 0%
Galactanase activity at pH 3.5 ([2]; pH 3.5): 12%
Galactanase activity at pH 4.5 ([2]; pH 4.5): 41%
Galactanase activity at pH 5.5 ([2]; pH 5.5): 63%
Galactanase activity at pH 6.5 ([2]; pH 6.5): 90%
Galactanase activity at pH 7.5 ([2]; pH 7.5): 100%
Galactanase activity at pH 8.5 ([2]; pH 8.5): 54%
Galactanase activity at pH 9.5 ([2]; pH 9.5): 7%
DP3 in products ([3]; incubation time 2 hours): 1.4 weight %
Glu/Gal in products ([3]; incubation time 2 hours): 1.0 weight %
Lac/Gal2 in products ([3]; incubation time 2 hours): 95.7 weight %
DP3 in products ([3]; incubation time 23 hours): 6.3 weight %
Glu/Gal in products ([3]; incubation time 23 hours): 6.5 weight %
Lac/Gal2 in products ([3]; incubation time 23 hours): 85.3 weight %
Glu/Gal in products ([3]; incubation time 120 hours): 21.0 weight %
DP3 in products [4, 5]: 2.0 weight %
DP4+ in products [4, 5]: 0.5 weight %
Glu/Gal in products [4, 5]: 1.4 weight %
Lac/Gal2 in products [4, 5]: 96.0 weight %
DP3 in products [4, 6]: 7.0 weight %
DP4+ in products [4, 6]: 1.8 weight %
Glu/Gal in products [4, 6]: 12.5 weight %
Lac/Gal2 in products [4, 6]: 78.7 weight %
DP3 in products [4, 7]: 8.9 weight %
DP4+ in products [4, 7]: 1.1 weight %
Glu/Gal in products [4, 7]: 38.8 weight %
Lac/Gal2 in products [4, 7]: 51.2 weight %
DP4+ in products ([4]; pH 6.45, incubation time 2 hours): 1.9 weight %
DP4+ in products ([4]; pH 6.45, incubation time 23 hours): 1.9 weight %
DP3 in products [4, 8]: 11.7 weight %
DP4+ in products [4, 8]: 4.7 weight %
Lac/Gal2 in products [4, 8]: 62.6 weight %
Conversion of Lac ([4]; pH 4.5 and 6.5): significant conversion of Lac
